According to publication PMC6751238, “The first fungal laccase with an alkaline pH optimum obtained by directed evolution and its application in indigo dye decolorization” (AMB Express, 2019):
Numbering of substitutions follows the chain as printed. Numbers in names are those of the source.

How the values were obtained:
[1] = substrate: COc1ccccc1O; assay: purified protein
[2] = substrate: COc1cccc(OC)c1O; assay: purified protein; type: biochemical, Coprinopsis cinerea
[3] = pH 6.5, 70 °C as printed in table (text says 60 °C), pH 6.5
[4] = PIE5, pH 8.5, 60 °C, pH 8.5, 60.0 °C

B1: rLcc9 (Coprinopsis cinerea okayama7#130; E116K/I393T) (protein)
chain: QILGPTSTMTVSNIDASPDGFNRPVVAVNGQHPGPLVRANKGDNFRINVVNDLNDPTMLRQTSVHWHGVFQHGTAWADGPDGVTQCPIAQNGESFKYRFNAGNEAGTFWYHSHFGTQYCDGLRGPLVIYDPNDPHRNLYDVDNADTVITLVDWYHLQAPSIEGPALSDATLINGKGRRPGGPETDIAIVNVQRNRRYRFRLVSMSCDPNYKFSIDGHKLTVIEADGQLTEPLMVDEIQIFAGQRYSFVLSANRPVGNYWIRAIPNVGSNNLPNFSSGGINSAILRYAGAPNANPTSTPVTNPVALHESNLHALLNPGAPGGSGPADENIVLQMGLGPAGFEINGVTWANPDSPVMVQIMNGVPPADIVPSGATHTLPRNRVVEVSIPGFELAGPHPFHLHGHAFSVVRSAGSSTYNYENPVRRDVVDVGGASDNVTIRFTTDNPGPWFFHCHIEFHLVLGLAMVFMEAPSDIPSTSPPPPSWSELCPKFESLPASATSIQIVPTP
Km ([1]; pH 6.5, 60 °C, pH 6.5, 60.0 °C): 110 µM
kcat ([1]; pH 6.5, 60 °C, pH 6.5, 60.0 °C): 46 s⁻¹
kcat/Km ([1]; pH 6.5, 60 °C, pH 6.5, 60.0 °C): 390000 M⁻¹ s⁻¹

B2: rLcc9 (Coprinopsis cinerea okayama7#130; N229D) (protein)
chain: B1 chain with K96E, N209D, T373I
notes: lcc9 cDNA in pPIC9K (EcoRI/NotI), secreted from Pichia pastoris GS115, purified (DEAE-Sepharose); PIE5 = E116K/N229D/I393T
Km ([1]; pH 8.0, 60 °C, pH 8.0, 60.0 °C): 370 µM
kcat ([1]; pH 8.0, 60 °C, pH 8.0, 60.0 °C): 87.3 s⁻¹
kcat/Km ([1]; pH 8.0, 60 °C, pH 8.0, 60.0 °C): 230000 M⁻¹ s⁻¹
Km ([2]; pH 8.0, 60 °C): 2.6 mM
kcat ([2]; pH 8.0, 60 °C): 66.2 s⁻¹
kcat/Km ([2]; pH 8.0, 60 °C): 25000 M⁻¹ s⁻¹

B3: rLcc9 (Coprinopsis cinerea okayama7#130; I393T/N229D) (protein)
chain: B1 chain with K96E, N209D
Km ([1]; pH 8.0, 60 °C, pH 8.0, 60.0 °C): 340 µM
kcat ([1]; pH 8.0, 60 °C, pH 8.0, 60.0 °C): 82.5 s⁻¹
kcat/Km ([1]; pH 8.0, 60 °C, pH 8.0, 60.0 °C): 230000 M⁻¹ s⁻¹

B4: rLcc9 (Coprinopsis cinerea okayama7#130) (protein)
chain: B1 chain with K96E, T373I
notes: as for B2
Km [1, 3]: 90 µM
kcat [1, 3]: 22.8 s⁻¹
kcat/Km [1, 3]: 250000 M⁻¹ s⁻¹
Km ([2]; pH 6.5, 60 °C): 2.3 mM
kcat ([2]; pH 6.5, 60 °C): 69.4 s⁻¹
kcat/Km ([2]; pH 6.5, 60 °C): 30000 M⁻¹ s⁻¹

B5: rLcc9 (Coprinopsis cinerea okayama7#130; E116K) (protein)
chain: B1 chain with T373I
Km ([1]; pH 6.5, 60 °C, pH 6.5, 60.0 °C): 320 µM
kcat ([1]; pH 6.5, 60 °C, pH 6.5, 60.0 °C): 85.8 s⁻¹
kcat/Km ([1]; pH 6.5, 60 °C, pH 6.5, 60.0 °C): 250000 M⁻¹ s⁻¹

B6: rLcc9 (Coprinopsis cinerea okayama7#130; I393T) (protein)
chain: B1 chain with K96E
notes: as for B2
Km ([1]; pH 7.0, 60 °C, pH 7.0, 60.0 °C): 140 µM
kcat ([1]; pH 7.0, 60 °C, pH 7.0, 60.0 °C): 83.9 s⁻¹
kcat/Km ([1]; pH 7.0, 60 °C, pH 7.0, 60.0 °C): 570000 M⁻¹ s⁻¹
Km ([2]; pH 7.0, 60 °C): 1.2 mM
kcat ([2]; pH 7.0, 60 °C): 49.2 s⁻¹
kcat/Km ([2]; pH 7.0, 60 °C): 38000 M⁻¹ s⁻¹

B7: rLcc9 (Coprinopsis cinerea okayama7#130; E116K/I393T/N229D) (protein)
chain: B1 chain with N209D
notes: as for B2
Km [1, 4]: 330 µM
kcat [1, 4]: 62.9 s⁻¹
kcat/Km [1, 4]: 180000 M⁻¹ s⁻¹
Km ([2]; PIE5, pH 8.0, 60 °C): 5.7 mM
kcat ([2]; PIE5, pH 8.0, 60 °C): 43.5 s⁻¹
kcat/Km ([2]; PIE5, pH 8.0, 60 °C): 7500 M⁻¹ s⁻¹

B8: rLcc9 (Coprinopsis cinerea okayama7#130; E116K/N229D) (protein)
chain: B1 chain with N209D, T373I
Km ([1]; pH 8.0, 60 °C, pH 8.0, 60.0 °C): 340 µM
kcat ([1]; pH 8.0, 60 °C, pH 8.0, 60.0 °C): 75.4 s⁻¹
kcat/Km ([1]; pH 8.0, 60 °C, pH 8.0, 60.0 °C): 210000 M⁻¹ s⁻¹
